# Columns and labels:
# HLA-A*02:03 = assay: IEDB peptide-MHC binding, purified MHC/competitive/radioactivity; ≥ and ≤ were set here for values at or beyond the usual limits of such assays
# HLA-A*02:06 = assay: as above
# HLA-A*02:02 = assay: as above
# HLA-A*02:01 = assay: as above
# HLA-A*68:02 = assay: IEDB peptide-MHC binding, cellular MHC/competitive/fluorescence; ≥ and ≤ were set here for values at or beyond the usual limits of such assays
# [1] = source organism: Vaccinia virus WR
# [2] = source organism: Influenza A virus
# [3] = source organism: Mammarenavirus lassaense
Sequence,IC50 (HLA-A*02:03; [1]) [nM],IC50 (HLA-A*02:06; [1]) [nM],IC50 (HLA-A*02:02; [1]) [nM],IC50 (HLA-A*02:01; [1]) [nM],IC50 (HLA-A*68:02; [1]) [nM],also measured
VMFNGVTFST,–,–,–,–,–,IC50 (HLA-A*02:03; source organism: SARS-CoV1): 75 nM; IC50 (HLA-A*02:06; source organism: SARS-CoV1): 131 nM; IC50 (HLA-A*02:02; source organism: SARS-CoV1): 0.69 nM; IC50 (HLA-A*02:01; source organism: SARS-CoV1): 8.5 nM; IC50 (HLA-A*68:02; source organism: SARS-CoV1): 13700 nM
AAVTLNRIKI,3490,1920,830,2320,5980,–
NLAPHLLLIV,–,–,–,–,–,IC50 (HLA-A*02:03; source organism: SARS-CoV1): 1.1 nM; IC50 (HLA-A*02:06; source organism: SARS-CoV1): 125 nM; IC50 (HLA-A*02:02; source organism: SARS-CoV1): 5.1 nM; IC50 (HLA-A*02:01; source organism: SARS-CoV1): 206 nM; IC50 (HLA-A*68:02; source organism: SARS-CoV1): 7240 nM
KINPLLDEPL,304,19,53,1470,10100,–
YLIRALTL,–,–,–,–,–,IC50 (HLA-A*02:03; [2]): 145 nM; IC50 (HLA-A*02:06; [2]): 2520 nM; IC50 (HLA-A*02:02; [2]): 216 nM; IC50 (HLA-A*02:01; [2]): 607 nM; IC50 (HLA-A*68:02; [2]): 9520 nM
YALCTLLHL,–,–,–,–,–,IC50 (HLA-A*02:03; source organism: SARS-CoV1): 768 nM; IC50 (HLA-A*02:06; source organism: SARS-CoV1): 1.5 nM; IC50 (HLA-A*02:02; source organism: SARS-CoV1): 1320 nM; IC50 (HLA-A*02:01; source organism: SARS-CoV1): 8.7 nM; IC50 (HLA-A*68:02; source organism: SARS-CoV1): 5620 nM
VLTSVDIETA,421,1410,62,747,11400,–
GMSIVCIVA,656,4510,190,83,9840,–
LLWDYMCIS,–,–,–,–,–,IC50 (HLA-A*02:03; [3]): 597 nM; IC50 (HLA-A*02:06; [3]): 408 nM; IC50 (HLA-A*02:02; [3]): 147 nM; IC50 (HLA-A*02:01; [3]): 45 nM; IC50 (HLA-A*68:02; [3]): 12700 nM
KILSDENYL,1170,28,196,121,46600,–
YLLMHLVSL,1.4,0.25,0.18,3.5,7750,–
LILSNKLLYA,122,36,468,169,9790,–
VTYNIKPVIV,116,358,4920,3000,8340,–
FLFLAWIMLL,–,–,–,–,–,IC50 (HLA-A*02:03; source organism: SARS-CoV1): 56 nM; IC50 (HLA-A*02:06; source organism: SARS-CoV1): 1010 nM; IC50 (HLA-A*02:02; source organism: SARS-CoV1): 19 nM; IC50 (HLA-A*02:01; source organism: SARS-CoV1): 80 nM; IC50 (HLA-A*68:02; source organism: SARS-CoV1): 6180 nM
LMWFIISIV,–,–,–,–,–,IC50 (HLA-A*02:03; source organism: SARS-CoV1): 7.2 nM; IC50 (HLA-A*02:06; source organism: SARS-CoV1): 27 nM; IC50 (HLA-A*02:02; source organism: SARS-CoV1): 60 nM; IC50 (HLA-A*02:01; source organism: SARS-CoV1): 9.8 nM; IC50 (HLA-A*68:02; source organism: SARS-CoV1): 18400 nM
TILATLNTL,34,26,238,172,18500,–
ILDNAAKYV,261,1810,126,14,22700,–

# — the Immune Epitope Database (IEDB)
